Source: US20160237164A1 (VIVENTIA BIO, published 2016)
Changes are numbered by the printed parent chain. Where two headings read alike, the source gives them in different places.

Experiments:
[1] = biological target: Epithelial Cell Adhesion Molecule (EpCAM) (human) (UniProt P16422)
[2] = biological target: Epithelial Cell Adhesion Molecule (EpCAM) (human) (UniProt P16422); remark: listed apart in the source
[3] = biological target: Epithelial Cell Adhesion Molecule (EpCAM) (human) (UniProt P16422); remark: listed apart in the source
[4] = biological target: T1, Epithelial Cell Adhesion Molecule (EpCAM) (human, UniProt P16422 24-314); experiment: flow cytometry titration (3.2 to 1000 ng/mL) on CAL-27 cells, Lineweaver-Burk plot
T1 construct: whole, on cells; also called 17-1A; KSA
T1 sequence (looked up): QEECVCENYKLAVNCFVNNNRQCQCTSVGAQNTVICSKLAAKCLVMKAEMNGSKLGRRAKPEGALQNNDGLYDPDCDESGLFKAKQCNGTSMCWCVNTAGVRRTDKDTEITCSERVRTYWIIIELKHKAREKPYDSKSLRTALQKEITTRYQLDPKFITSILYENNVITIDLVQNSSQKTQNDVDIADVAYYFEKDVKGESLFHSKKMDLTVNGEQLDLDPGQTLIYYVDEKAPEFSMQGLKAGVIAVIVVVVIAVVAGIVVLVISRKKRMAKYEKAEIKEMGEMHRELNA

[5] = biological target: T2, Epithelial Cell Adhesion Molecule (EpCAM) (human, UniProt P16422 24-314); experiment: flow cytometry (Lineweaver-Burk), Cal-27 cells
T2 chain: T1 sequence (looked up)

[6] = biological target: T1, Epithelial Cell Adhesion Molecule …
[7] = biological target: T1, Epithelial Cell Adhesion Molecule …; experiment: flow cytometry on MCF-7 cells (EpCAM-positive), purified protein at 100 ng/mL
[8] = biological target: T1, Epithelial Cell Adhesion Molecule …; remark: listed apart in the source
[9] = biological target: T1, Epithelial Cell Adhesion Molecule …; experiment: cell-based or functional assay
[10] = biological target: T1, Epithelial Cell Adhesion Molecule …; experiment: flow cytometry on HT-29 cells (EpCAM-positive), purified protein at 100 ng/mL
[11] = biological target: T1, Epithelial Cell Adhesion Molecule …; experiment: flow cytometry on OVCAR-3 cells (EpCAM-positive), purified protein at 100 ng/mL
[12] = biological target: T1, Epithelial Cell Adhesion Molecule …; experiment: flow cytometry on CAL-27 cells (EpCAM-positive), purified protein at 100 ng/mL
[13] = biological target: T1, Epithelial Cell Adhesion Molecule …; remark: listed apart in the source
[14] = biological target: T1, Epithelial Cell Adhesion Molecule …; remark: listed apart in the source

Molecule: VB6-845 VH-N53 / VL-WT (Fab)
- MF (median fluorescence, % of WT) [1]: 23 % of WT

Molecule: VB6-845 VH-WT / VL-FR2 (D41-Q42), first version (Fab)
- MF (median fluorescence, % of WT) [2]: 84 % of WT

Molecule: VB6-845 VH-WT / VL-FR2 (H39-S42), second version (Fab)
- MF (median fluorescence, % of WT) [3]: 68 % of WT

Molecule: VB6-845 VH-S93 / VL-WT (Fab)
- MF (median fluorescence, % of WT) [1]: 35 % of WT

Molecule: VB6-845 VH-WT / VL-CDR2 (E51-H53-Q55) (Fab)
- MF (median fluorescence, % of WT) [3]: 70 % of WT

B1: VB5-845-WT (non-deimmunized VB5-845 Fab fragment) (Fab, V domains shown)
VH: EVQLVQSGPGLVQPGGSVRISCAASGYTFTNYGMNWVKQAPGKGLEWMGWINTYTGESTYADSFKGRFTFSLDTSASAAYLQINSLRAEDTAVYYCARFAIKGDYWGQGTLLTVSS
VL: DIQMTQSPSSLSASVGDRVTITCRSTKSLLHSNGITYLYWYQQKPGKAPKLLIYQMSNLASGVPSRFSSSGSGTDFTLTISSLQPEDFATYYCAQNLEIPRTFGQGTKVELKR
- Kd [4]: 1.56 nM
- Kd [5]: 1.46 nM

B2: VB5-845-Algo Fab (Fab, V domains shown)
VH: EVQLQQSGPGLVQPGGSVRISCAASGYTFTAYGMNWVRQAPGKGLEWMGWINTYTGESTYADSFKGRFEFSLDTHNSSAYLQIQSLREEDTAVYYCARFAIQGDYWGQGTLVTVSS
VL: B1 VL with R24K, K47S, N58H, L111I
- Kd [4]: 1.31 nM

B3: VB6-845-(VH-IIr-CDR1/VL-Ir-Q50) (Fab)
chain 1: EVQLVQSGPGLVQPGGSVRISCAASGYTFTNYGMNWVKQAPGKGLEWMGWINTYTGESTYADSFKGRFTFSLDTSASAAYLQINSLRAEDTAVYYCARFAIKGDYWGQGTLLTVSSASTKGPSVFPLAPSSKSTSGGTAALGCLVKDYFPEPVTVSWNSGALTSGVHTFPAVLQSSGLYSLSSVVTVPSSSLGTQTYICNVNHKPSNTKVDKKVEPKSCTRHRQPRGWEQLYNTVSFNLGEAYEYPTFIQDLRNELAKGTPVCQLPVTLQTIADDKRFVLVDITTTSKKTVKVAIDVTDVYVVGYQDKWDGKDRAVFLDKVPTVATSKLFPGVTNRVTLTFDGSYQKLVNAAKADRKALELGVNKLEFSIEAIHGKTINGQEAAKFFLIVIQMVSEAARFKYIETEVVDRGLYGSFKPNFKVLNLENNWGDISDAIHKSSPQCTTINPALQLISPSNDPWVVNKVSQISPDMGILKFKSSK
chain 2: HHHHHHDIQMTQSPSSLSASVGDRVTITCRSTKSLLHSNGITYLYWYQQKPGKAPKLLIYQMSNLASGVPSRFSSSGSGTDFTLTISSLQPEDFATYYCAQNLEIPRTFGQGTKVELKRTVAAPSVFIFPPSDEQLKSGTASVVCLLNNFYPREAKVQWKVDNALQSGNSQESVTEQDSKDSTYSLSSTLTLSKADYEKHKVYACEVTHQGLSSPVTKSFNRGEC
- MF (median fluorescence, % of WT) [6]: 78 % of WT

B4: VB6-845-Algo (VH-IIr-N35-Q98 / VL-IIr-KSHI) (Fab)
heavy: EVQLQQSGPGLVQPGGSVRISCAASGYTFTAYGMNWVRQAPGKGLEWMGWINTYTGESTYADSFKGRFEFSLDTHNSSAYLQIQSLREEDTAVYYCARFAIQGDYWGQGTLVTVSSASTKGPSVFPLAPSSKSTSGGTAALGCLVKDYFPEPVTVSWNSGALTSGVHTFPAVLQSSGLYSLSSVVTVPSSSLGTQTYICNVNHKPSNTKVDKKVEPKSC
light: DIQMTQSPSSLSASVGDRVTITCKSTKSLLHSNGITYLYWYQQKPGSAPKLLIYQMSHLASGVPSRFSSSGSGTDFTLTISSLQPEDFATYYCAQNLEIPRTFGQGTKVEIKRTVAAPSVFIFPPSDEQLKSGTASVVCLLNNFYPREAKVQWKVDNALQSGNSQESVTEQDSKDSTYSLSSTLTLSKADYEKHKVYACEVTHQGLSSPVTKSFNRGECTRHRQPRGWEQKYNTVSFNLGEAYEYPTFIQDLRNELAKGTPVCQLPVTLQTIADDKRFVLVDITTTSKKTVKVAIDVTDVYVVGYQDKWDGKDRAVFLDKVPTVATSKLFPGVTNRVTLTFDGSYQKLVNAAKADRKALELGVNKLEFSIEAIHGKTINGQEAAKFFLIVIQMVSEAARFKYIETEVVDRGLYGSFKPNFKVLNLENNWGDISDAIHKSSPQCTTINPALQLISPSNDPWVVNKVSQISPDMGILKFKSSK
- FI (fold increase) at 100 ng/mL [7]: 27.7 fold
- MF (median fluorescence, % of WT) [8]: 94 % of WT
- IC50 (nM), MTS cytotoxicity assay, CAL-27 (EpCAM-positive) [9]: 18 nM
- IC50 (nM), MTS cytotoxicity assay, HT-29 (EpCAM-positive) [9]: 15 nM
- IC50 (nM), MTS cytotoxicity assay, MCF-7 (EpCAM-positive) [9]: 2.3 nM
- IC50 (nM), MTS cytotoxicity assay, OVCAR-3 (EpCAM-positive) [9]: 2.9 nM
- FI (fold increase) at 100 ng/mL [10]: 41.6 fold
- FI (fold increase) at 100 ng/mL [11]: 40.9 fold
- FI (fold increase) at 100 ng/mL [12]: 14 fold

B5: VB6-845 VH-WT / VL-IIr-KSHI (Fab)
heavy: EVQLVQSGPGLVQPGGSVRISCAASGYTFTNYGMNWVKQAPGKGLEWMGWINTYTGESTYADSFKGRFTFSLDTSASAAYLQINSLRAEDTAVYYCARFAIKGDYWGQGTLLTVSSASTKGPSVFPLAPSSKSTSGGTAALGCLVKDYFPEPVTVSWNSGALTSGVHTFPAVLQSSGLYSLSSVVTVPSSSLGTQTYICNVNHKPSNTKVDKKVEPKSC
light: B4 light
- MF (median fluorescence, % of WT) [13]: 89 % of WT

B6: VB6-845 VH-IIr-N35-Q98 / VL-WT (Fab)
heavy: B4 heavy
light: B4 light with K24R, S47K, H58N, I111L
- MF (median fluorescence, % of WT) [14]: 100 % of WT
